Laboratory results published in the supplement of paper PMC7125110.
± gives the standard error. For part of these data: Variants at the floor of the assay were thinned out.

B1: glmS ribozyme (parent)
chain: AUAAAAGCGCCAGAACUACAGAAAUGUAGUUGACGAGGAGGAGGUUUAUCGAAUUUUCGGCGGAUGCCUCCAAA

Key:
Details in all cases: with glucosamine-6-phosphate
[1] = variants of: B1; assay: kcat; higher = faster cleavage; RNA array
How it was run: (§1)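 On sequenced MiSeq chips, barcoded ribozyme variants were made in situ by E. coli RNA polymerase and followed at 37 °C through a hybridised Cy3 probe. Glucosamine-6-phosphate was flowed in at 40 μM to 10 mM in HEPES/KCl/Mg(OAc)2 buffer. Exponential fits to normalised per-tile medians gave kobs, and weighted Michaelis–Menten fits gave kcat and KM.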

[2] = variants of: B1; assay: KM; higher = weaker cofactor use; RNA array
How it was run: as §1

[3] = variants of: B1; assay: self-cleavage kobs at 640 uM GlcN6P; higher = faster cleavage; RNA array
How it was run: as §1

[4] = variants of: B1; assay: self-cleavage kobs at 2500 uM GlcN6P; higher = faster cleavage; RNA array
How it was run: as §1

[5] = variants of: B1; assay: self-cleavage kobs at 10000 uM GlcN6P; higher = faster cleavage; RNA array
How it was run: as §1

[6] = variants of: B1; assay: self-cleavage kobs at 40 uM GlcN6P; higher = faster cleavage; RNA array
How it was run: as §1

[7] = variants of: B1; assay: self-cleavage kobs at 160 uM GlcN6P; higher = faster cleavage; RNA array
How it was run: as §1

Variant	kcat [1] [s⁻¹]	KM [2] [mM]	self-cleavage kobs at 640 uM GlcN6P [3] [s⁻¹]	self-cleavage kobs at 2500 uM GlcN6P [4] [s⁻¹]	self-cleavage kobs at 10000 uM GlcN6P [5] [s⁻¹]	self-cleavage kobs at 40 uM GlcN6P [6] [s⁻¹]	self-cleavage kobs at 160 uM GlcN6P [7] [s⁻¹]
AUAAAAGCGCCAGAACUACAGAAAUGUAGUUGACGAGGAGGAGGUUUAUCGAUUUUACGGCGGAUGCCUCCAAA [A53U U57A]	0.000262 ± 3e-05	2.87 ± 0.6	5.19e-05 ± 8e-06	0.000113 ± 1.4e-05	0.000215 ± 3e-05	–	–
AUAAAAGCGCCAGAACUACAGAAAUGUAGUUGACGAGGAGGAGGUUUAUCGAAAUUUCGGUGGAUGCCUCCAAA [U54A C61U]	3.19e-05 ± 4.4e-07	1.62 ± 0.086	–	–	2.74e-05 ± 1e-05	< 1e-05	–
AUAAAAGCGCCAGAACUACAGAAAUGUAGUUGACGAGGAGGAGGUUUAUCGAUUAUUCGGCGGAUGCCUCCAAA [A53U U55A]	0.026 ± 0.012	–	0.00403 ± 0.00095	0.00891 ± 0.0017	0.0215 ± 0.0042	0.000486 ± 8.9e-05	0.000887 ± 0.00017
AUAAAAGCGCCAGAACUACAGAAAUGUAGUUGACGAGGAGGAGGUUUAUCGAUUGUUCGGCGGCUGCCUCCAAA [A53U U55G A64C]	9.81e-05 ± 5.1e-06	3.42 ± 0.52	–	4.12e-05 ± 1.6e-05	7.31e-05 ± 1.4e-05	–	–
AUAAAAGCGCCAGAACUACAGAAAUGUAGUUGACGAGGAGGAGGUUUAUCGAUGUUUCGGCGGAUGCCUCCAAA [A53U U54G]	0.0452 ± 0.016	3.78 ± 1.6	0.00468 ± 0.001	0.0161 ± 0.0061	0.0354 ± 0.0056	0.000521 ± 4.8e-05	–
AUAAAAGCGCCAGAACUACAGAAAUGUAGUUGACGAGGAGGAGGUUUAUCGAAAUUUCGGCGGAUGCAUCCAAA [U54A C68A]	5.71e-05 ± 2e-05	–	7.98e-05 ± 1.5e-05	7.88e-05 ± 1.1e-05	–	–	4.94e-05 ± 1.5e-05
AUAAAAGCGCCAGAACUACAGAAAUGUAGUUGACGAGGAGGAGGUUUAUCGAUUUUUCGGCGGAUGCCACCAAA [A53U U69A]	0.000102 ± 1.2e-05	–	0.000146 ± 3.1e-05	0.000103 ± 1.7e-05	9.48e-05 ± 1.3e-05	4.28e-05 ± 1.3e-05	5.84e-05 ± 1.7e-05
AUAAAAGCGCCAGAACUACAGAAAUGUAGUUGACGAGGAGGAGGUUUAUCGAAAUUUCGGCGGUUGCCUCCAAA [U54A A64U]	0.000124 ± 1.2e-05	–	7.79e-05 ± 2.6e-05	7.51e-05 ± 2.5e-05	0.00012 ± 1.1e-05	–	–
